# Measured values published in the DeepSol protein solubility set.
# Assay: soluble on expression in E. coli; label from the status in PepcDB or PDB records
row,Sequence,soluble on expression in E. coli
1,MSHLKDPTTQYYTGEYPKQKQPTPGIQAKMTPVPDCGEKTYVGSGRLKDRKALVTGGDSGIGRAAAIAYAREGADVAISYLPVEEEDAQDVKKIIEECGRKAVLLPGDLSDEKFARSLVHEAHKALGGLDIMALVAGKQVAIPDIADLTSEQFQKTFAINVFALFWLTQEAIPLLPKGASIITTSSIQAYQPSPHLLDYAATKAAILNYSRGLAKQVAEKGIRVNIVAPGPIWTALQISGGQTQDKIPQFGQQTPMKRAGQPAELAPVYVYLASQESSYVTAEVHGVCGGEHLG,soluble
2,MGSDKIHHHHHHMDEIARFLRSYPPFDRLPEQVVHQIAGELQIEFVRAGQTILTKGGEPSSFLYIVCKGSVDLLRSEDQVVDTLGPGEAFGHPSLIRGQPPLVTVRAHTDTLLYLLPGAIFHRLRAEQPQFAAFFAASVIERLGYALQSRQSESNPALFQTRLRDLVARPPVSISPEATVGDAARLMRDERISSLIVEHTPIGIITDRDLRNRVLAEGLPDTTPVRQVMSAPATTIAADALAFEGLLLMLERGIHHLPLVEGDRVVGVVTHTDILRRQSNSPLFLPRLLQRATSLADLRRYTDQVADAVFTLTAAGARVSDIGRVVAVAHDALLQRLIHDAEAQLGPPPVPYAWLVLGSEGRYEQTLRTDQDNALVYDDSASADDVRYFEQLATLVVDWLVECGFPRCPGNIMATNPEWRQSLATWQRYFHRWIEIPDEESLLRIAIFFDYRQVYGQLPAEPVLRTITQHAAEHRIFMARLARAALRQPAPLTFFRQVALERRGDPRDL,not soluble
3,MADETPKVKTEPAAEVKSPLDEVKEIRKEAELTQTGSDEKKTTDPEFITVQDPNGDEPIELPTVDGVVLMTTLQASFPGATGLKYKNPKTGANRAVQVDPSGLKLIAPADGWENKTFFVIVAPQSERVRALSSADATSAKRRKVGSSDDSDSDDGRDGRSGRKRAVERDSQPVDLIVLGVDFKTTDECFQKYFEDIGTVVFCEIKRKSDGNSKGFGFVRMSSVGEQNKVLAIPQHMIDGRRCDVKVPDGRDKQGRPSISRIFVGRLTDKVDEHQLRKVFGDEAKSYIETAVVTDVFIPKPFRGFAFVTLSSAEAAERIVSKGSLTVNGLSVGLSIAQPREENNQSVGPDYGLPAGYRNRRERDRPDRRPIQNEAPLPMPFVRPPQDYSYRQQNSPLERRYWAPGDSRGPGW,not soluble
4,GPGSMEAVGTADRPSLEFCPQAQNSPQTRPLLCVRRPPETVRRRHDRNPPRDSTQTADAVPWDSSSSPPHASCTAGGYKTSRGARQMALPFLFPPPGVGQRSFVADRVHRRQHCGLAQPLPQPWLRAASRSILLGDASSALPPLDPPAARPSVCRQRLALHGSGG,not soluble
5,MSDNALTSSRRFGGIARLYGDSALAHFSQAHVCVVGVGGVGSWAVEALARTGIGRLTLIDLDNVAESNVNRQLHALTGDFGKAKVTALRERITQINPQCEVFEIEDFVTEDNLPEYFGKGFDFVIDAIDQVRVKAAMAAYFVERKQPFVLSGGAGGQKNPALIQTADLSRVTHDPLLANLRYTLRKRYGFSRDTKANMRVPCVYSTENIVPPQSREACSADAAPQGLSCAGYGASMLVTASFGLYCAQAAVEHIADKKLEHHHHHH,soluble
6,SGGLLIASAHFGAYVCGTDIDYNTVHGLGKASRKNQKWRGPDENIRANLRQYGLEKFYLDVLVSDASKPSWRKGTYFDAIITDPPYGIRESTRRSGSQKDIPKGIEKCPESHVPVSLSYHLSDMFFDLLNFAAETLVLGGRLVYWLPVYTPEYTEEMVPWHPCLRLISNCEQKLSSHTARRLITMEKVKEFENRDKYSHLLSDHFLPYQGHNSFREKYFSGVTKRIAKEEKCSHE,not soluble
7,MLRQIGEFYHQGEKDDTSRVWMTCWHHGGRILASCGDDKAVRVWSLVGEPDSKMRLECRTTLDDSHTRAVRSVAFSNDGKCLVSASFDASVVVYQQEDGEFAEVNKLEGHESEVKCAVFSKSDEFLATCSRDKSVWFWQQDEDEDFSVSSILQPHTQDVKQVAWHPTEDLLVSCSYDSSIRFYRFDGEDWVTQQKIDGCHVGTVWSIAFDTEGHRLVTVGEDHCIQLFVRENIGSKSADQDTWKSVARYDVENTRWPLYSVAWNSTNDVIATGGGDCKIRLFKISSTPESPVIEHLGVVGRHELDVNHVAWNPNPKFSNLLTSASDDGTIRLWELEI,not soluble
8,DITVYNGQHKEAAQAVADAFTRATGIKVKLNSAKGDQLAGQIKEEGSRSPADVFYSEQIPALATLSAANLLEPLPASTINETRGKGVPVAAKKDWVALSGRSRVVVYDTRKLSEKDLEKSVLNYATPKWKNRIGYVPTSGAFLEQIVAIVKLKGEAAALKWLKGLKEYGKPYAKNSVALQAVENGEVDAALINNYYWHAFAREKGVQNVHTRLNFVRHRDPGALVTYSGAAVLKSSQNKDEAKKFVAFLAGKEGQRALTAVRAEYPLNPHVVSTFNLEPIAKLEAPQVSATTVSEKEHATRLLEQAGMK,soluble
9,MRSRHDTYNNDCDRTLVIMAQRTLAYIVSRRQSASGFTTTARARRWHV,not soluble
10,MTEKKIDFKKEEKKFYAPKRKPERIFVPEMNFLMVDGKGDPDGEEYQKAVQSLYAIAYTIKMSKMGETRLDGYSDFVVPPLEGFWWSEGKFDLKDRDAWLWTSILRQPDFVTEEVLEWAKEVARKKKPDV,not soluble
11,MGSDKIHHHHHHVVYRYGLALVTQPPLVSLEDLGYGHGPGQRLFDGLSLHIHSGECHCICGPTGSGKSSLLALIAGLNERPFAGVLECQSGVQVALVMQDPQVQLLRRTLGAEVAFGLENQGVAADDMPAAVKSALIRVGLELPLDTCIDTLSLGQKYRVMLASQLVLNPRVLLLDEPWAQLDDEGVGQLMVTLARLKADGMALIIAEHHPAAFAGLLDFHWLLDQGRLQPAAAGKASGALRADILCRWNPNGLGGRKCLTLAPCDLVLPTLAQGGRGRSGSKGFLSARFASAAPEGRSLFRLDTPLVLRTGDIRLLLGDNGSGKSTLLKALAGLQDGVKLPVKLDGRIPNTAAGEVALMLQRPSRQLFELTVVEELSFSIRRRGLDEAQVAWVQAFLAIEHLAAVSPHKLSWGQQHLVLLAALVITEPRLLLLDDPFAGLDEQSLMACIKLLNWYLSRGGCCVLACHRDVTGFEQVARWQLKDGLLTEVEASGQALAARDGAQTKPWELAAGGMGR,not soluble
12,GMNLTELMERIPHLREILNIVREAFKDYDDPAHDISHTFRVMENASEIASREKCDLQKAIIAALLHDIKRPHEALTGVDHAESGAEYASGLLPTMGFDISFVAEVSKAIRSHRYSGGLTPTSLTGKILQDADRLDAIGAVAIARVFSYSGKTGTPLHSLQFSPRSSYSGNSRSSINHFHEKILKIRPETFWTETARKMAEDRYSFVVEFVQRFLAEWGQI,soluble
13,MKIIGSMGKKTENLKIDAKKSFLKRIAKNVKVSEGERAVEDILRCIYRNQPISTKKIGQYVKLPLPIVSKVRSILERESLLKRDDKGAVLSKKGIDFVENELGLKLKSDMKCPVCSGRNIVFDEKFEKILKKHKTYAKLRPQVNTMIDQSFATPETATARAAIMADRGDLEGKRVLFVGDDDLASIPTAMTGLCSEVVVLDIDDRLLKLISEVSKKENLNIRTVKWDFKNELPSEFVNKFDTIFTDPPYTLNGAVLFMSRGIEALGDNGILYLAFSHKPVEEYIELQKSINNMNFLIYELIPGFNFYEGTEIIGNTTFLARLVGKNLKKIEVNSEKIYTGELKPTLRYYQCMNCKKIHEVGNKVKRIEDLTCECGGKKFSMIKRAKVKQK,not soluble
14,MGSDKIHHHHHHMILKHRRPNIYGLMNKEGNKEEVEMIINELLNRDYKITFLPSGSSAVFLSMWIAKIYSNEISIPDMGGWQGFLKFPKLLNLKNNMIETNLGIIDLEKLDESLKENSSLILTSLAGYLAPQPLKEIKKLCEEREVLFIEDISGKIGGDCGYGDIVVCSTGTPKILNCEYGGFLGISKEIEEKLGNALNDIKILSKTYKTINYFGLLKEELLNAKKTYKKYVEASKIIKDEIENAYFREFEGISVFIECDNPKNISKKINSLIKLDNRKSITTICPNYDRILKNGIVFETKKIDISELNREVINEIIIALSSIL,not soluble
15,AHHHHHHGSNSKEFRKIALVGASKNPAKYGNIILKDLLSKGFEVLPVNPNYDEIEGLKCYRSVRELPKDVDVIVFVVPPKVGLQVAKEAVEAGFKKLWFQPGAESEEIRRFLEKAGVEYSFGRCIMVETSNKKIFLEV,soluble
